Source: patent publication US20150203577A1 (Chugai, published 2015)
Where a chain is given by its changes, count along the chain named.

B1: H237-MB290/MRAL-k0 (antibody, mouse IgG1, kappa)
heavy: QVQLQESGPGLVKPSETLSLTCAVSGHSISHDHAWSWVRQPPGEGLEWIGFISYSGITNYNPSLQGRVTISRDNSKNTLYLQMNSLRAEDTAVYYCARSLARTTAMDYWGEGTLVTVSSAKTTPPSVYPLAPGSAAQTNSMVTLGCLVKGYFPEPVTVTWNSGSLSSGVHTFPAVLQSDLYTLSSSVTVPSSTWPSETVTCNVAHPASSTKVDKKIVPRDCGCKPCICTAPEVSDVFIFPPKPKDVLTITLTPKVTCVVVDISKDDPEVQFSWFVDDVEVHTAQTQPREEQFNSTFRSVSELPIMHQDWLNGKEFKCRVNSAAFPAPIEKTISKTKGRPKAPQVYTIPPPKEQMAKDKVSLTCMITDFFPEDITVEWQWNGQPAENYKNTQPIMDTDGSYFVYSKLNVQKSNWEAGNTFTCSVLHEGLHNHHTEKSLSHSPGK
light: not shown
notes: copies: 2 + 2
B2: H237-MB302/MRAL-k0 (antibody, mouse IgG1, kappa)
heavy: B1 heavy with T229E, A230V, S234E
light: not shown
notes: copies: 2 + 2
B3: H237-MB305/MRAL-k0 (antibody, mouse IgG1, kappa)
heavy: B1 heavy with P231E
light: not shown
notes: copies: 2 + 2
B4: H237-MB337/MRAL-k0 (antibody, mouse IgG1, kappa)
heavy: B1 heavy with T229E, S234E
light: not shown
notes: copies: 2 + 2
B5: MB289 (antibody, mouse IgG1, kappa)
heavy: B1 heavy with T229E, A230V
light: not shown
notes: copies: 2 + 2
B6: MB291 (antibody, mouse IgG1, kappa)
heavy: B1 heavy with A230D
light: not shown
notes: copies: 2 + 2
B7: MB292 (antibody, mouse IgG1, kappa)
heavy: B1 heavy with A230V, P231E
light: not shown
notes: copies: 2 + 2
B8: MB293 (antibody, mouse IgG1, kappa)
heavy: B1 heavy with A230V, S234E
light: not shown
notes: copies: 2 + 2
B9: MB294 (antibody, mouse IgG1, kappa)
heavy: B1 heavy with A230V, V236E
light: not shown
notes: copies: 2 + 2
B10: MB295 (antibody, mouse IgG1, kappa)
heavy: B1 heavy with A230V, V236H
light: not shown
notes: copies: 2 + 2
B11: MB296 (antibody, mouse IgG1, kappa)
heavy: B1 heavy with A230V, S263A
light: not shown
notes: copies: 2 + 2
B12: MB299 (antibody, mouse IgG1, kappa)
heavy: B1 heavy with T229E
light: not shown
notes: copies: 2 + 2
B13: MB300 (antibody, mouse IgG1, kappa)
heavy: B1 heavy with T229E, A230D
light: not shown
notes: copies: 2 + 2
B14: H237-MB491/MRAL-k0 (antibody, mouse IgG1, kappa)
heavy: B1 heavy with T229E, A230P, P231N, S234E, S294M
light: not shown
notes: copies: 2 + 2
B15: H237-MB492/MRAL-k0 (antibody, mouse IgG1, kappa)
heavy: B1 heavy with T229E, A230P, P231N, S234E, N320D
light: not shown
notes: copies: 2 + 2
B16: H237-MB493/MRAL-k0 (antibody, mouse IgG1, kappa)
heavy: B1 heavy with T229E, A230P, P231N, S234E, S294L, N320D
light: not shown
notes: copies: 2 + 2
B17: H237-MB494/MRAL-k0 (antibody, mouse IgG1, kappa)
heavy: B1 heavy with T229E, A230P, P231N, S234E, S294L, K330R
light: not shown
notes: copies: 2 + 2
B18: H237-MB495/MRAL-k0 (antibody, mouse IgG1, kappa)
heavy: B1 heavy with T229E, A230P, P231N, S234E, S294M, N320D
light: not shown
notes: copies: 2 + 2
B19: H237-MB496/MRAL-k0 (antibody, mouse IgG1, kappa)
heavy: B1 heavy with T229E, A230P, P231N, S234E, S294M, K330R
light: not shown
notes: copies: 2 + 2
B20: H237-MB497/MRAL-k0 (antibody, mouse IgG1, kappa)
heavy: B1 heavy with T229E, A230P, P231N, S234E, N320D, K330R
light: not shown
notes: copies: 2 + 2
B21: H237-MB498/MRAL-k0 (antibody, mouse IgG1, kappa)
heavy: B1 heavy with T229E, A230P, P231N, S234E, S294L, N320D, K330R
light: not shown
notes: copies: 2 + 2
B22: H237-MB499/MRAL-k0 (antibody, mouse IgG1, kappa)
heavy: B1 heavy with T229E, A230P, P231N, S234E, S294M, N320D, K330R
light: not shown
notes: copies: 2 + 2

Biological target: T1, mouse FcγRIII (mouse, UniProt P08508 31-215)
T1 construct: also called mFcγRIII; mFcgRIII
T1 chain: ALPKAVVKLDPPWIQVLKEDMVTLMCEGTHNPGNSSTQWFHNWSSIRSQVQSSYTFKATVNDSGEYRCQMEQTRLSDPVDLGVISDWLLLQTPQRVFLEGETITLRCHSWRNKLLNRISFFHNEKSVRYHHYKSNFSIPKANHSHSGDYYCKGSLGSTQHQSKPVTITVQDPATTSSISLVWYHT
Assay: SPR Biacore T200, KD ratio
Source text: (§1) The antibody H chain variable region used was the variable region H237 (SEQ ID NO: 1) of the H chain VH3-IgG1 of the anti-IL-6 receptor antibody Fv4-IgG1 described in WO2009/125825. The antibody L chain commonly used was the L chain MRAL-k0 (SEQ ID NO: 2) of the anti-IL-6 receptor antibody tocilizumab. […] The resulting variant group was designated as MB110 variants. These variants were expressed and purified by the method of Reference Example 1 and evaluated for their binding to mFcγRII and mFcγRIII by the method of Reference Example 2 using Biacore T200.
(§2) Each altered antibody was analyzed for its interaction with each Fcγ receptor prepared above using Biacore T100 (GE Healthcare Japan Corp.), Biacore T200 (GE Healthcare Japan Corp.), Biacore A100, or Biacore 4000. The running buffer used was HBS-EP+ (GE Healthcare Japan Corp.). The assay temperature was set to 25° C. The sensor chips used were chips prepared by immobilizing Protein L (ACTIGEN or BioVision) onto Series S Sensor Chip CM5 (GE Healthcare Japan Corp.) or Series S Sensor Chip CM4 (GE Healthcare Japan Corp.) by the amine coupling method.
(§3) In order to calculate the KD value of each altered antibody for FcγR, kinetic analysis was conducted according to the following method: first, the antibody of interest was captured onto any of these chips and allowed to interact with mFcγR diluted with a running buffer. For the obtained sensorgram, the assay results were globally fit into the 1:1 Langmuir binding model using Biacore Evaluation Software to calculate an association rate constant ka (L/mol/s) and a dissociation rate constant kd (1/s). From these values, the dissociation constant KD (mol/L) was calculated.

Row | Binder | Relative mFcγRIII-binding activity (MB110 = 1) | relative mFcγRIII-binding activity (mIgG1 = 1)
1 | B1 | 1.37 fold | 5.5 fold
2 | B2 | 1.11 fold | 4.5 fold
3 | B3 | 0.94 fold | 3.8 fold
4 | B4 | 1.15 fold | 4.6 fold
5 | B5 | 1.23 fold | 4.9 fold
6 | B6 | 1.66 fold | 6.7 fold
7 | B7 | 1.02 fold | 4.1 fold
8 | B8 | 1.01 fold | 4.1 fold
9 | B9 | 0.47 fold | 1.9 fold
10 | B10 | 0.42 fold | 1.7 fold
11 | B11 | 1.39 fold | 5.6 fold
12 | B12 | 1.61 fold | 6.5 fold
13 | B13 | 1.41 fold | 5.7 fold

What follows are binders tested against T2, mouse FcγRII (mouse, UniProt P08101 30-210) (assay: SPR Biacore T200, KD ratio).
T2 construct: also called mFcγRII; mFcgRII
T2 sequence: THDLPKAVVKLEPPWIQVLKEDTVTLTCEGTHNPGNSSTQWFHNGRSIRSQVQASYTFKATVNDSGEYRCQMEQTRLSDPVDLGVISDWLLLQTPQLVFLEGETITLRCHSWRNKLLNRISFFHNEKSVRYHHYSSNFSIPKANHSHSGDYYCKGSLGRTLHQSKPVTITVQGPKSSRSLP
Source text: as §1, §2, §3

Row | Binder | Relative mFcγRII-binding activity (MB110 = 1) | relative mFcγRII-binding activity (mIgG1 = 1)
14 | B1 | 2.16 fold | 26.5 fold
15 | B2 | 4.37 fold | 53.7 fold
16 | B3 | 2.12 fold | 26 fold
17 | B4 | 5.98 fold | 73.4 fold
18 | B5 | 3.57 fold | 43.8 fold
19 | B6 | 3.47 fold | 42.6 fold
20 | B7 | 2.82 fold | 34.6 fold
21 | B8 | 3.25 fold | 39.9 fold
22 | B9 | 0.62 fold | 7.6 fold
23 | B10 | 0.62 fold | 7.6 fold
24 | B11 | 1.71 fold | 21 fold
25 | B12 | 4.96 fold | 60.8 fold
26 | B13 | 4.25 fold | 52.3 fold

These binders were tested against T3, mouse FcγRII extracellular domain, C-terminally His-tagged (mouse, UniProt P08101 30-210) (assay: SPR Biacore T200, KD ratio).
T3 construct: the whole entry is named; also called mFcγRII; mFcgRII
T3 sequence: T2 sequence
Source text: as §1, with “groups were” for “group was”, “MB397 variants and MB390 variants, respectively.” for “MB110 variants.”
as §2, §3

Row | Binder | relative mFcγRII-binding activity (MB390 = 1) | relative mFcγRII-binding activity (mIgG1 = 1)
27 | B14 | 0.92 fold | 478 fold
28 | B15 | 1.19 fold | 622 fold
29 | B16 | 2.73 fold | 1420 fold
30 | B17 | 4.05 fold | 2110 fold
31 | B18 | 1.2 fold | 623 fold
32 | B19 | 1.7 fold | 884 fold
33 | B20 | 1.48 fold | 773 fold
34 | B21 | 6.4 fold | 3340 fold
35 | B22 | 1.9 fold | 992 fold

Biological target: T4, mouse FcγRIII extracellular domain, C-terminally His-tagged (mouse, UniProt P08508 31-215)
T4 construct: the whole entry is named; also called mFcγRIII; mFcgRIII
T4 chain: T1 chain
Assay: SPR Biacore T200, KD ratio
Source text: as §1, with “groups were” for “group was”, “MB397 variants and MB390 variants, respectively.” for “MB110 variants.”
as §2, §3

Row | Binder | relative mFcγRIII-binding activity (MB390 = 1) | relative mFcγRIII-binding activity (mIgG1 = 1)
36 | B14 | 1.05 fold | 12.4 fold
37 | B15 | 0.92 fold | 10.9 fold
38 | B16 | 3.77 fold | 44.9 fold
39 | B17 | 4.99 fold | 59.4 fold
40 | B18 | 1.45 fold | 17.2 fold
41 | B19 | 1.71 fold | 20.3 fold
42 | B20 | 1.32 fold | 15.7 fold
43 | B21 | 7.15 fold | 85.1 fold
44 | B22 | 2.03 fold | 24.2 fold
